Patent US6689878B2, “Target of RNAIII activating protein (TRAP)” (The Regents of the University of California, priority 1998, dated 2004)

Assay: Sensitivity of TRAP phosphorylation to acidic and basic conditions
Type: physicochemical, Staphylococcus aureus
Description: Two-component systems act through phosphorylation of the substrate domain of the sensor protein and subsequent transfer of the phosphate to an aspartate residue in the regulator protein. The initial phosphorylation is catalyzed by a protein histidine kinase domain in the sensor protein and results in an N-phosphorylated histidine residue, which is stable in alkaline conditions but not in acidic conditions (Wei et al. Methods Enymol. 200:388-414 (1991)). To test whether TRAP may be histidine-phosphorylated and therefore a candidate sensor to RAP, phosphorylated TRAP was tested for sensitivity to acidic and basic conditions. Phosphorylated TRAP was incubated at pH ranging from 3-10, for 10 min at room temperature. The mixture was then applied to SDS PAGE and the gel autoradiographed.

B1: Phosphorylated TRAP: approximately 21 kDa S. aureus protein target of RAP, SEQ ID NO:2, phosphorylated by RAP (protein)
chain: MKKLYTSYGTYGFLHQIKINNPTHQLFQFSASDTSVIFEETDGETVLKSPSIYEVIKEIGEFSEHHFYCAIFIPSTEDHAYQLEKKLISVDDNFRNFGGFKSYRLLRPAKGTTYKIYFGFADRHAYEDFKQSDAFNDHFSKDALSHYFGSSGQHSSYFERYLYPIKE
modifications: phosphorylated
In the case of B1, the “Stability of TRAP phosphorylation in lower pHs” value (lower pHs (range tested pH 3-10), 10 min at room temperature) is reported as “labile” and the “Stability of TRAP phosphorylation at pH 8-10” value (pH 8-10, 10 min at room temperature) is reported as “stable”.
